Sequences and labels used below:
B1: Long-distance movement protein (Groundnut rosette virus (strain MC1)), Q67684 (parent)
chain: MDTTPASRGQWPVGIMSSVINVFASGKSCNSGGAPRSSVRRGHRAGAARDKSRGFDAPPRRPKGGVHPATTSKDPNKDIRGPPAPTPHKKYRGPAIPGEGRSGVHTTRPRRRAGRSGGMDPRQLVAQPQQRWAKTEIPTERRAEIDGLLPSLLNTLDGQIQGDAALLRYCVGAIKRELRRRWESVQPAHHVAASSGKPSPQLFNEAAQNAEDLSGDGKGCAGQSVQQEVLHSGSGVPPVCADCGKPAANKW
partner: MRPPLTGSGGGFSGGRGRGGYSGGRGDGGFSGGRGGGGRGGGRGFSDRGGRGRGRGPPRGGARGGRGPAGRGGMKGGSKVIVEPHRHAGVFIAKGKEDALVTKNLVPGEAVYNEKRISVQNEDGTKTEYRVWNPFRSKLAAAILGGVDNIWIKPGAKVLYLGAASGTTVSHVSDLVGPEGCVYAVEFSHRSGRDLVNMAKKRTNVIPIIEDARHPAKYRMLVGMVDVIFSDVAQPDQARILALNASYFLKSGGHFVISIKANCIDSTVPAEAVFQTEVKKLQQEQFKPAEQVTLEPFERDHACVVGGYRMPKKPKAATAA

Variants of B1 are the subject of the experiment. As to conditions: with fbrl2_arath FIB2, Q94AH9.
Turning to MDTTPASRGQWPVGIMSSVINVFASGKSCNSGGAPRSSVRRGHRAGAARDKSRGFDAPPRRPKGGVHPATTSKDPNKDIRGPPAPTPHKKYRGPAIPGEGRSGVHTTRPRRRAGRSGGMDPRQLVAQPQQRWAKTEIPTERRAEIDGLAPSLLNTLDGQIQGDAALLRYCVGAIKRELRRRWESVQPAHHVAASSGKPSPQLFNEAAQNAEDLSGDGKGCAGQSVQQEVLHSGSGVPPVCADCGKPAANKW [L149A], the “effect of a mutation on the interaction” value is given as “disrupting interaction strength”.

For the origin of these results see IntAct's records for PubMed 17576925.
